Positions count from the first letter of the chain named.
T1: monkey CEA expressed on CHO cell surface (cynomolgus monkey)
T1 construct: also called cynoCEA-CHO; monkey CEA proteins on the cell surface
T1 chain: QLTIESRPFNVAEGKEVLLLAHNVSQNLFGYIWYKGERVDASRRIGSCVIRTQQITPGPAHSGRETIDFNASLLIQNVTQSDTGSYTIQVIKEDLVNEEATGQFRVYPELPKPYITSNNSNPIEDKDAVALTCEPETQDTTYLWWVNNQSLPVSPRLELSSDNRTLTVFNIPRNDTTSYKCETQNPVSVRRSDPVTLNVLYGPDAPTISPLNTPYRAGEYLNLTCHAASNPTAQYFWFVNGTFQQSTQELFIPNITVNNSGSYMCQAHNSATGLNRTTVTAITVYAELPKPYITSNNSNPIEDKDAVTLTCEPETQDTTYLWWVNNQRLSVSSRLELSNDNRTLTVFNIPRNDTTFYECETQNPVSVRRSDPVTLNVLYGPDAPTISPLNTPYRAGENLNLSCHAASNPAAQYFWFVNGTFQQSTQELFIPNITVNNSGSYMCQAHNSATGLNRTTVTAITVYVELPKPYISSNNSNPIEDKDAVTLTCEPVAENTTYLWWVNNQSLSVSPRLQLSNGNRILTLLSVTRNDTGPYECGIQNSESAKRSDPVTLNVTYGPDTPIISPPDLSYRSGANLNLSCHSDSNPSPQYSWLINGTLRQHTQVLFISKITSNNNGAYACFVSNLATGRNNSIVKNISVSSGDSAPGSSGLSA

T2: human CEA protein on the cell surface (human, UniProt P06731 35-685)
T2 construct: whole, on cells; also called CEACAM-5; CD66e
T2 sequence (looked up): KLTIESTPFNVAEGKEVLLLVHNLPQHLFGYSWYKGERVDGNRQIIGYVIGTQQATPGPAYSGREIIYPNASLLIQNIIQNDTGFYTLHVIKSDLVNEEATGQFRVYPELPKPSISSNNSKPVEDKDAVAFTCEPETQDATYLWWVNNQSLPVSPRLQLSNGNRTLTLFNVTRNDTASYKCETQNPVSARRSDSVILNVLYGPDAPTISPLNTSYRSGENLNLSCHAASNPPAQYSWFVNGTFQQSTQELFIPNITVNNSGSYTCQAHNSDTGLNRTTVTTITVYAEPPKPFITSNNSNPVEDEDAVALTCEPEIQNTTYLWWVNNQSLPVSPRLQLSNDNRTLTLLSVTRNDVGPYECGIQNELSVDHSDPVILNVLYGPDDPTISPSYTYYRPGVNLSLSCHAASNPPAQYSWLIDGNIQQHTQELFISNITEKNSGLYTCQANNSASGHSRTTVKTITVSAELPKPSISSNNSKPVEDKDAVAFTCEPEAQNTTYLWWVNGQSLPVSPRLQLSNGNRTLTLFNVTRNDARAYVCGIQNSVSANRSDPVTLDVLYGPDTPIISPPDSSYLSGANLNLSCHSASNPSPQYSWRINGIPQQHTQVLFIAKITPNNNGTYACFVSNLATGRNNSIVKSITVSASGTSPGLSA

B1: Hu67-5 (antibody, human IgG1, kappa, V domains shown)
VH: EVQLVQSGAEVKKPGASVKVSCKASGYTFTDYHMNWVRQAPGQRLEWMGDINPDIGGTSYNQNFKGRVTITRDTSASTAYMELSSLRSEDTAVYYCARWDFDSFANWGQGTLVTVSS
VL: DIVMTQSPSSLSASVGDRVTITCRASESVSIIGTNLIHWYQQKPGKPPKLLIYHASNLETGVPSRFSGSGSGTDFTLTISSLQPEDFATYYCLQSRKIPYTFGGGTKVEIKR
B2: Hu67-9 (antibody, human IgG1, kappa, V domains shown)
VH: EVQLVQSGAEVKKPGESLKISCKGSGYSFTDYHMNWVRQMPGKGLEWMGDINPDIGGTSYNQNFKGQVTISADKSISTAYLQWSSLKASDTAMYYCARWDFDSFANWGQGTLVTVSS
VL: B1 VL with V3Q, P47A
B3: Hu67-7 (antibody, V domains shown)
VH: B2 VH
VL: EIVMTQSPATLSVSPGERATLSCRASESVSIIGTNLIHWYQQKPGQAPRLLIYHASNLETGIPARFSGSGSGTEFTLTISSLQSEDFAVYYCLQSRKIPYTFGGGTKVEIKR
B4: Hu67-4 (antibody, human IgG1, kappa, V domains shown)
VH: B1 VH
VL: B1 VL with V3Q, P47A
B5: Hu67-10 (antibody, human IgG1, kappa, V domains shown)
VH: B2 VH
VL: B1 VL
B6: Hu67-12 (antibody, V domains shown)
VH: B2 VH with R38K, Q67K, A72V
VL: B3 VL
B7: Hu67-11 (antibody, human IgG1, kappa, V domains shown)
VH: B2 VH with R38K, Q67K, A72V
VL: DIVMTQSPDSLAVSLGERATINCRASESVSIIGTNLIHWYQQKPGQPPKLLIYHASNLETGVPDRFSGSGSGTDFTLTISSLQAEDVAVYYCLQSRKIPYTFGGGTKVEIKR
B8: Hu67-1 (antibody, human IgG1, kappa, V domains shown)
VH: B1 VH
VL: B7 VL
B9: Hu47-10 (antibody, human IgG1, kappa, V domains shown)
VH: EVQLVQSGSELKKPGASVKVSCKASGYTFTTYGMSWVKQAPGQGLKWMGWINTYSGVPTYADDFKGRFVFSLDTSVSTAYLQISSLKAEDTAVYYCARRGNYGRWDFDVWGQGTTVTVSS
VL: EIVLTQSPDFQSVTPKEKVTITCSVSSTISSSNLHWYQQKPDQSPKPLIYGTSNLASGVPSRFSGSGSGTDYTLTINSLEAEDAATYYCQQWSIYPLTFGQGTKLEIKR
B10: Hu47-6 (antibody, human IgG1, kappa, V domains shown)
VH: B9 VH with K38R
VL: B9 VL
B11: Hu103-22 (antibody, human IgG1, lambda)
heavy: not shown
light: ELVVTQSPSASASLGASVKLTCTLSSQHSTYTIEWYQQQPEKPPRYVMELKKDGSHSTGDGIPDRFSGSSSGAERYLTISSLQSEDEADYICGVGNTIKEQFVYVFGGGTKLTVLGQPKANPTVTLFPPSSEELQANKATLVCLISDFYPGAVTVAWKADGSPVKAGVETTKPSKQSNNKYAASSYLSLTPEQWKSHRSYSCQVTHEGSTVEKTVAPTECS
B12: Hu103-23 (antibody, human IgG1, lambda)
heavy: not shown
light: B11 light with E74D
B13: Hu63-13-2-A (DAR 3.97) (antibody, human IgG1, kappa, V domains shown)
VH: EVQLVQSGAEVKKPGASVKVSCKASGYTFTDFYMNWVRQAPGQGLEWMGDIFPKSGNTDYNRKFKDRVTMTRDTSTSTVYMELSSLRSEDTAVYYCARSGYGNYVFDYWGQGTLVTVSS
VL: DIQMTQSPSSLSASVGDRVTITCRTSQDINIYLNWYQQKPGKAPKLLIYYRSGLLSGVPSRFSGSGSGTDFTLTISSLQPEDFATYYCQQGNTLPPTFGGGTKVEIKR
modifications: see heavy chain; linker-toxin 2-A coupled to cysteine thiols of the TCEP-reduced antibody; mean DAR 3.97 per antibody
B14: Hu67-14-2-A (DAR 6.41) (antibody, human IgG1, kappa, V domains shown)
VH: B2 VH with R38K, Q67K, A72V
VL: B1 VL with V3Q, P47A
modifications: see heavy chain; linker-toxin 2-A coupled to cysteine thiols of the TCEP-reduced antibody; mean DAR 6.41 per antibody
B15: Hu67-14-2-A (DAR 4.28) (antibody, human IgG1, kappa, V domains shown)
VH: B2 VH with R38K, Q67K, A72V
VL: B1 VL with V3Q, P47A
modifications: see heavy chain; linker-toxin 2-A coupled to cysteine thiols of the TCEP-reduced antibody; mean DAR 4.28 per antibody
B16: Hu103-32-2-A (DAR 6.94) (antibody, human IgG1, lambda, V domains shown)
VH: EVQLVQSGSELKKPGASVKVSCKASGYTFTTYGVIWVRQAPGQGLEWMGWINTYSGVPTYASDFKGRFVFSLDTSVSTAYLQISSLKAEDTAVYYCARKKTLTTVTPWFAYWGQGTLVTVSS
VL: ELVLTQSPSASASLGASVKLTCTLSSQHSTYTIEWYQQQPEKGPRYVMELKKDGSHSTGEGIPDRFSGSSSGAERYLTISSLQSEDEADYYCGVGNTIKEQFVYVFGGGTKLTVLG
modifications: see heavy chain; linker-toxin 2-A coupled to cysteine thiols of the TCEP-reduced antibody; mean DAR 6.94 per antibody
B17: Hu103-32-2-A (DAR 4.8) (antibody, human IgG1, lambda, V domains shown)
VH: B16 VH
VL: B16 VL
modifications: see heavy chain; linker-toxin 2-A coupled to cysteine thiols of the TCEP-reduced antibody; mean DAR 4.8 per antibody

Molecular target: T1, monkey CEA expressed on CHO cell surface
Test: FACS, cynoCEA-CHO cells
Experimental: (§1) In order to detect the binding of the antibody to the CEA protein on the cell surface, the binding activity of the antibody was determined by FACS using cells expressing CEA on the cell surface. Cells were harvested and centrifuged at 400 g at 4° C. for 5 min. Pre-cooled PBS containing FBS at final concentration 10% was added, and the mixture was centrifuged at 400 g at 4° C. for 5 min; the procedures were repeated twice. The cells were seeded into a 96-well plate at 10⁵ cells/well, and 100 μL of gradient diluted antibody solution was added to each well. The plate was incubated at 4° C. for 60 min and centrifuged, and the supernatant was removed. 250 μL of pre-cooled PBS containing FBS at final concentration 10% was added to each well to resuspend the cells, and the suspension was centrifuged at 400 g at 4° C. for 5 min, followed by the removal of the supernatant; the procedures were repeated twice. 50 μL of 1:200 diluted secondary antibody Alexa Fluor@488 goat anti-human IgG (H+L) (Lifetechologies, Cat #A11013) was added. […] 250 μL of pre-cooled PBS containing FBS at final concentration 10% was added to each cell to resuspend the cells, and the suspension was centrifuged at 400 g at 4° C. for 5 min; the procedures were repeated twice. 100 μL of pre-cooled PBS was added to each well to resuspend the cells. The plate was analyzed by a flow cytometer (BD, FACSverse) for fluorescence signal values.
Binder B1 has an EC50 of 3.5 nM. Work on B2 yielded an EC50 of 3.72 nM. For B3, the EC50 was 7.2 nM. In the case of B4, the EC50 is reported as 3.06 nM. With B5 the EC50 was 5.37 nM. Binder B6 has an EC50 of 5.31 nM. In the case of B7, the EC50 is reported as 4.66 nM. Work on B8 yielded an EC50 of 4.57 nM. B9 gave an EC50 of 0.27 nM. In the case of B10, the EC50 is reported as 0.3 nM. B11 was tested, and the EC50 was 1.02 nM. In the case of B12, the EC50 is reported as 0.93 nM.

Each binder was assayed against T2, human CEA protein on the cell surface (assay: FACS, MKN45 cells).
Experimental: as §1
For B1, the EC50 was 2.86 nM. Work on B2 yielded an EC50 of 3.75 nM. B3 gave an EC50 of 3.88 nM. Binder B4 has an EC50 of 3.25 nM. For B5, the EC50 was 3.19 nM. Binder B6 has an EC50 of 3.2 nM. For B7, the EC50 was 2.26 nM. With B8 the EC50 was 2.46 nM. In the case of B9, the EC50 is reported as 2.27 nM. In the case of B10, the EC50 is reported as 2.5 nM. Binder B11 has an EC50 of 3.64 nM. For B12, the EC50 was 2.9 nM.

What follows are binders tested against T2, human CEA protein on the cell surface (assay: cell-based or functional assay).
For B13, the “IC50 of inhibition of cell proliferation, LS174T (with moderate CEA expression)” value was 19.8 nM and the “IC50 of inhibition of cell proliferation, MKN45 (with high CEA expression)” value (“IC50 of inhibition … (with high CEA expression)” for short) was 34 nM. With B14 the “IC50 of inhibition of cell proliferation, LS174T (with moderate CEA expression)” value was 9.24 nM and the “IC50 of inhibition … (with high CEA expression)” value was 3.33 nM. For B15, the “IC50 of inhibition of cell proliferation, LS174T (with moderate CEA expression)” value was 15.6 nM and the “IC50 of inhibition … (with high CEA expression)” value was 9.39 nM. B16 was tested, and the “IC50 of inhibition of cell proliferation, LS174T (with moderate CEA expression)” value was 2.37 nM and the “IC50 of inhibition … (with high CEA expression)” value was 3 nM. With B17 the “IC50 of inhibition of cell proliferation, LS174T (with moderate CEA expression)” value was 3.08 nM and the “IC50 of inhibition … (with high CEA expression)” value was 2.86 nM.

— patent US20230055408A1 (JIANGSU HENGRUI MEDICINE, published 2023)
